According to article PMC4288179, “Synergic interplay of the La motif, RRM1 and the interdomain linker of LARP6 in the recognition of collagen mRNA expands the RNA binding repertoire of the La module”:

Tests used:
Test in all cases: ITC; ITC: 20 mM Tris pH 7.25, 100 mM KCl, 5 mM MgCl2, 1 mM DTT, 298 K; protein titrated into RNA
Conditions in all cases: protein: recombinant; tags: N-terminal His6 (TEV-cleavable); stem-loop with internal bulge
[1] = target: T1, HsLARP6(70-300) F102A (Homo sapiens, UniProt Q9BRS8 70-300, F102A)
T1 sequence: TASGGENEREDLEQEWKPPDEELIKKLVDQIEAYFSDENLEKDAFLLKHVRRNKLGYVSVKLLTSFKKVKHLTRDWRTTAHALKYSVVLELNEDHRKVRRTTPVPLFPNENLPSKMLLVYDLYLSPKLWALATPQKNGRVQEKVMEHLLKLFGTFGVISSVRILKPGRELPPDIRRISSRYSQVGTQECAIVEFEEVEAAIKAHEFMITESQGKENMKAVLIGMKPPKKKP

[2] = target: T2, HsLARP6(70-300) Y189A (Homo sapiens, UniProt Q9BRS8 70-300, Y189A)
T2 sequence: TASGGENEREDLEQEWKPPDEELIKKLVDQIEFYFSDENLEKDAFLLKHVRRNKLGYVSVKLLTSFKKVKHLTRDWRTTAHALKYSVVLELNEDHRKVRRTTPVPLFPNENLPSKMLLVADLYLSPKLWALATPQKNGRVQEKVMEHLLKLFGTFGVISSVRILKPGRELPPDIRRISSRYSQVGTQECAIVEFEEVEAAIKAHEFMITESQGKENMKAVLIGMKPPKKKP

[3] = target: T3, HsLARP6(70-300) Q99A (Homo sapiens, UniProt Q9BRS8 70-300, Q99A)
T3 sequence: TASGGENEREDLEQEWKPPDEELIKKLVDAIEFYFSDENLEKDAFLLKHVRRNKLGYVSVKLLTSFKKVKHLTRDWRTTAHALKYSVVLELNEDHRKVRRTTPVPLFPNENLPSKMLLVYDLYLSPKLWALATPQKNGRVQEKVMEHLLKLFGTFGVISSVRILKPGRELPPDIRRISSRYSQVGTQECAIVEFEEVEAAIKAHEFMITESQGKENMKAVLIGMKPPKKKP

[4] = target: T4, HsLARP6(70-300) W85A (Homo sapiens, UniProt Q9BRS8 70-300, W85A)
T4 sequence: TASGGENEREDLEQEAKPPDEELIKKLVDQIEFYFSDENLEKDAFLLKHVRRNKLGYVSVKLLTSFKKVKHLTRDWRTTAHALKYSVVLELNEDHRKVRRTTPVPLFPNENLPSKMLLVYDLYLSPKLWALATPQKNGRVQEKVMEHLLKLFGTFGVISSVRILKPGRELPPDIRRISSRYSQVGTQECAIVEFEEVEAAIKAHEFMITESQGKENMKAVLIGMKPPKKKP

[5] = target: T5, HsLARP6(70-300) W198A (Homo sapiens, UniProt Q9BRS8 70-300, W198A)
T5 sequence: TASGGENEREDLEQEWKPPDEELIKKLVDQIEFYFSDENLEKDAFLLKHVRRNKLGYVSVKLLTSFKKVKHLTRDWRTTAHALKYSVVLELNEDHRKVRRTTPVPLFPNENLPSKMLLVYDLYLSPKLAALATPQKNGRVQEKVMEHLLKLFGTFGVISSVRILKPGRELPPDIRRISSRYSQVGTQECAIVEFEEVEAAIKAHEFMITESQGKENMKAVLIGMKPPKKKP

[6] = target: T6, HsLARP6(70-300) K196A (Homo sapiens, UniProt Q9BRS8 70-300, K196A)
T6 sequence: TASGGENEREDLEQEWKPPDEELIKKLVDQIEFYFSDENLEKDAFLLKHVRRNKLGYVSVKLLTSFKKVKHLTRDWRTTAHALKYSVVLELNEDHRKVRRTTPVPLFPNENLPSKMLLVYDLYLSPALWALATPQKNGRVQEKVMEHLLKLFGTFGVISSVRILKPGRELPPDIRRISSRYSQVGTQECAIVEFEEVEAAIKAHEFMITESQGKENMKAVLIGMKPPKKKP

[7] = target: T7, HsLARP6(70-300) I260A (Homo sapiens, UniProt Q9BRS8 70-300, I260A)
T7 sequence: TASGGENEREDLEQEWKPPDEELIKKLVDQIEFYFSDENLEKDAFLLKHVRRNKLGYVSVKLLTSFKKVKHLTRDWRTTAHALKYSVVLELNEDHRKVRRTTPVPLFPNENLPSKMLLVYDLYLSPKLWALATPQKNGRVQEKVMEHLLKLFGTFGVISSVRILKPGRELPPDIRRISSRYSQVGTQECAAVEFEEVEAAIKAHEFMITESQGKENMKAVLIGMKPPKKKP

[8] = target: T8, HsLARP6(70-300) F114A (Homo sapiens, UniProt Q9BRS8 70-300, F114A)
T8 sequence: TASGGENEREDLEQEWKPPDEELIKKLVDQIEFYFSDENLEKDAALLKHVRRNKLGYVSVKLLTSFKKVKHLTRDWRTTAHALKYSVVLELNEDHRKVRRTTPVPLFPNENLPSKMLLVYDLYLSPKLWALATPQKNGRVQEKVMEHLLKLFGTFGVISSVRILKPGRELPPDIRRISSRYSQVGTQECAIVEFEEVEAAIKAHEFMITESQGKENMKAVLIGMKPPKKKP

Binder: CCACAAAGAGUCUACAUGUCUAGGGUCUAGACAUGUUCAGCUUUGUGG (structured_RNA) [48 nt RNA (collagen alpha1(I) 5' UTR SL)]
- binding result [1]: no binding
- Kd [2]: 59 nM
- binding result [3]: no binding
- Kd [4]: 22 nM
- Kd [5]: 71 nM
- Kd [6]: 48 nM
- Kd [7]: 26 nM
- binding result [8]: no binding
